This test concerns the target Cdk2/cyclin A complex (human, UniProt P24941 1-298; P20248 173-432). The experiment in a line: fluorescence polarisation; fluorescence anisotropy; Cdk2/cyclin A binding to p27-D2-FL (20 nM); 25 °C; 20 mM Na phosphate, pH 7, 200 mM NaCl, 3.5 mM TCEP; non-linear regression on the average of three experiments. To be noted: both partners purified. (In general: Polarisation of emitted light reports the rotation of a fluorescent probe.)

Where no end group is shown, it is not given here.

B1: p27-D2-FL (p27-D2-C99S-R93C labeled with Alexa Fluor 488) (domain or fragment)
chain: RKWNFDFQNHKPLEGKYEWQEVEKGSLPEFYYRPPC(Alexa Fluor 488 C5‑maleimide)PPKGASKVPAQE
notes: p27Kip1 (p27; CDKN1B), human, D2 sub-domain construct, residues 58-105; Cloned in pET28a; also called single-cysteine mutant of p27-D2; source: conjugated with Alexa Fluor488-C5-Maleimide and purified again by HPLC; not shown: 6xHis, N-terminal, cleaved
What is called Kd is the free concentration of one partner at which half of the binding sites on the other are occupied at equilibrium, for simple one-to-one binding. A high value points to weaker binding. Turning to B1, the Kd is 73 ± 8 nM.

The values are drawn from paper PMC4623604, “Discovery of Small Molecules that Inhibit the Disordered Protein, p27^Kip1” (Scientific Reports, 2015).
